Assay results as given in doi:10.1101/2020.09.11.292599 (bioRxiv, 2020).
Where two headings read alike, the source gives them in different places.

B1: recombinant PII, tag not stated for this experiment (natural protein, UniProt Q55247 1-112, looked up)
chain: MKKVEAIIRPFKLDEVKIALVNAGIVGMTVSEVRGFGRQKGQTERYRGSEYTVEFLQKLKIEIVVDEGQVDMVVDKLVSAARTGEIGDGKIFISPVDSVVRIRTGEKDTEAI

Tests used:
SEC-MALS = target: the molecule itself; test: SEC-MALS
[1] = target: T1, C-terminally His8-tagged PII (UniProt Q55247 1-112); test: BLI
[2] = target: T2, His6-tagged 2,3-bisphosphoglycerate-independent phosphoglycerate mutase (PGAM, Slr1945) (Synechocystis sp. PCC 6803, UniProt P74507 1-532); test: BLI
T2 sequence (looked up): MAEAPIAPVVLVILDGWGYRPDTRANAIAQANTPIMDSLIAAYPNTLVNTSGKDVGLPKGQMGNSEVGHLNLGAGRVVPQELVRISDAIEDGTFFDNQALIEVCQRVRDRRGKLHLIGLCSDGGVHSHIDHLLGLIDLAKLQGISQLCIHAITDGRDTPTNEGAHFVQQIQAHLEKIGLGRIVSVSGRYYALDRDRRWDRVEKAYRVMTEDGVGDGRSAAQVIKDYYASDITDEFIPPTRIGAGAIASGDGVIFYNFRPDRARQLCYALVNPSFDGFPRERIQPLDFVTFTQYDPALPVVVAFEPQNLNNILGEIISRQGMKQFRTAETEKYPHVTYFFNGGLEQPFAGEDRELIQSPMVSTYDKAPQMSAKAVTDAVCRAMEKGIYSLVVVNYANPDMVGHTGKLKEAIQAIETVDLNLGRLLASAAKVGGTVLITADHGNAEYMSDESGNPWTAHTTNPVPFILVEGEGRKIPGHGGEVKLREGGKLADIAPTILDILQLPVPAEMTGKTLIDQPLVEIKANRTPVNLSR

[3] = target: T2, His6-tagged …; test: BLI; remark: listed apart in the source
[4] = target: T1, C-terminally His8-tagged PII; test: BLI; remark: listed apart in the source
[5] = target: B1; test: SEC-MALS
[6] = target: T1, C-terminally His8-tagged PII; test: SPR

In the case of B1, the “stoichiometry N” value (SEC-MALS) is reported as 3.

B2: Strep-tagged PirC (Sll0944), 112 amino acid version starting at Met 53 (natural protein, Synechocystis sp. PCC 6803, UniProt P77971 53-164, looked up)
chain: MSQILDPIPNNQPSALFCCYVNATNQIQVARITNVPNWYFERVVFPGQRLVFEAVPSAQLEIHTGMMASSIISDTIPCEQLSIDPDGLAAGGFISPEKEHESEDMTSQSLVA
B2 gave a Kd [1] of 14.1 ± 0.7 nM, a Kd [2] of 459 nM and a Kd [3] of 1700 nM. It also gave a Kd [4] of 37.3 ± 2.5 nM.

B3: recombinant PirC (Sll0944), 112 amino acid version, tag not stated for this experiment (natural protein, Synechocystis sp. PCC 6803, UniProt P77971 53-164, looked up)
chain: MSQILDPIPNNQPSALFCCYVNATNQIQVARITNVPNWYFERVVFPGQRLVFEAVPSAQLEIHTGMMASSIISDTIPCEQLSIDPDGLAAGGFISPEKEHESEDMTSQSLVA
B3 was tested, and the “stoichiometry N” value [5] was 1 PirC monomer per PII trimer, the “stoichiometry N” value (SEC-MALS) was 2 and the “stoichiometry N” value [6] was ~1 PirC monomer per PII trimer.
